According to patent publication US20250236653A1 (published 2025):
Where two headings read alike, the source gives them in different places.

Legend:
human OX40 [1] = molecular target: T1, human OX40 (human, UniProt P43489 29-277); assay: flow cytometry
T1 chain: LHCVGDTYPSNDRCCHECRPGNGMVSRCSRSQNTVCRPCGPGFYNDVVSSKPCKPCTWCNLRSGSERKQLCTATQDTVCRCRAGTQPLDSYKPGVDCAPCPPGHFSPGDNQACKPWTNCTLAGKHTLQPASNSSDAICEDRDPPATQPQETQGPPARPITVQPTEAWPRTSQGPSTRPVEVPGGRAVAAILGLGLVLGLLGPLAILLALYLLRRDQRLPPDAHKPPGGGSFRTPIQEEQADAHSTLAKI

human OX40 [2] = molecular target: T1, human OX40; assay: flow cytometry

B1: mono-mut23-20E5_V6 (Fc fusion)
chain: IWELKKDVYVVELDWYPDAPGEMVVLTCDTPEEDGITWTLDQSSEVLGSGKTLTIQVKEFGDAGQYTCHKGGEVLSHSLLLLHKKEDGIWSTDILKDQKEPKNKTFLRCEAKNYSGRFTCWWLTTISTDLTFSVKSSRGSSDPQGVTCGAATLSAERVRGDNKEYEYSVECQEDSACPAAEESLPIEVMVDAVHKLKYENYTSSFFIRDIIKPDPPKNLQLKPLKNSRQVEVSWEYPDTWSTPHSYFSLTFSVQVQGKSKREKKDRVFTDKTSATVICRKNASISVRAQDRYYSSSWSEWASVPCSGGGGSGGGGSGGGGSGGGGSGGGGSRNLPVATPDPGMFPCLHHSQNLLRAVSNMLQKARQTLEFSPCTSEEIDHEDITKDKTSTVEACLPLELTKNESCLNSRETSFITNGSCLASRKTSFMMALCLSSIYEDLKMYQVEFKTMNAKLLMDPKRQIFLDQNMLAVIDELMQALNFNSETVPQKSSLEEPDFYKTAIKLCILLHAFRIRAVTIDRVMSYLNASGGGGSGGGGSEPKSSDKTHTCPPCPAPEFEGGPSVFLFPPKPKDTLMISRTPEVTCVVVDVSHEDPEVKFNWYVDGVEVHNAKTKPREEQYNSTYRVVSVLTVLHQDWLNGKEYKCKVSNKALPASIEKTISKAKGQPREPQVCTLPPSRDELTKNQVSLSCAVKGFYPSDIAVEWESNGQPENNYKTTPPVLDSDGSFFLVSKLTVDKSRWQQGNVFSCSVMHEALHNHYTQKSLSLSPG
heavy: QVQLVQSGAEVKKPGASVKVSCKASGYTFTSYVMHWVRQAPGQRLEWIGYINPYNDATKYNEKFKGRATLTSDKSASTAYMELSSLRSEDTAVYYCANYYGSSLSMDYWGQGTLVTVSSASTKGPSVFPLAPSSKSTSGGTAALGCLVKDYFPEPVTVSWNSGALTSGVHTFPAVLQSSGLYSLSSVVTVPSSSLGTQTYICNVNHKPSNTKVDKKVEPKSCDKTHTCPPCPAPEFEGGPSVFLFPPKPKDTLMISRTPEVTCVVVDVSHEDPEVKFNWYVDGVEVHNAKTKPREEQYNSTYRVVSVLTVLHQDWLNGKEYKCKVSNKALPASIEKTISKAKGQPREPQVYTLPPCRDELTKNQVSLWCLVKGFYPSDIAVEWESNGQPENNYKTTPPVLDSDGSFFLYSKLTVDKSRWQQGNVFSCSVMHEALHNHYTQKSLSLSPG
light: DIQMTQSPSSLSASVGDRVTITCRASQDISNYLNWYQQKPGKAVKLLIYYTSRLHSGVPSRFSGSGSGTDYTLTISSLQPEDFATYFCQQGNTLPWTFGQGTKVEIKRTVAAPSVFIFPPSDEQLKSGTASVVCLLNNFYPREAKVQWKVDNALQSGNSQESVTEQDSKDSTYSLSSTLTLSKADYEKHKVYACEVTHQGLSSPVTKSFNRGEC
EC50 (human OX40 [1]): 538 nM

B2: mono-mut23-20E5_V4 (Fc fusion)
chain: IWELKKDVYVVELDWYPDAPGEMVVLTCDTPEEDGITWTLDQSSEVLGSGKTLTIQVKEFGDAGQYTCHKGGEVLSHSLLLLHKKEDGIWSTDILKDQKEPKNKTFLRCEAKNYSGRFTCWWLTTISTDLTFSVKSSRGSSDPQGVTCGAATLSAERVRGDNKEYEYSVECQEDSACPAAEESLPIEVMVDAVHKLKYENYTSSFFIRDIIKPDPPKNLQLKPLKNSRQVEVSWEYPDTWSTPHSYFSLTFSVQVQGKSKREKKDRVFTDKTSATVICRKNASISVRAQDRYYSSSWSEWASVPCSGGGGSGGGGSGGGGSGGGGSGGGGSRNLPVATPDPGMFPCLHHSQNLLRAVSNMLQKARQTLEFSPCTSEEIDHEDITKDKTSTVEACLPLELTKNESCLNSRETSFITNGSCLASRKTSFMMALCLSSIYEDLKMYQVEFKTMNAKLLMDPKRQIFLDQNMLAVIDELMQALNFNSETVPQKSSLEEPDFYKTAIKLCILLHAFRIRAVTIDRVMSYLNASGGGGSGGGGSEPKSSDKTHTCPPCPAPEFEGGPSVFLFPPKPKDTLMISRTPEVTCVVVDVSHEDPEVKFNWYVDGVEVHNAKTKPREEQYNSTYRVVSVLTVLHQDWLNGKEYKCKVSNKALPASIEKTISKAKGQPREPQVCTLPPSRDELTKNQVSLSCAVKGFYPSDIAVEWESNGQPENNYKTTPPVLDSDGSFFLVSKLTVDKSRWQQGNVFSCSVMHEALHNHYTQKSLSLSPG
heavy: QVQLVQSGAEVKKPGASVKVSCKASGYTFTSYVMHWVRQAPGQRLEWIGYINPYNEGTKYNEKFKGRATLTSDKSASTAYMELSSLRSEDTAVYYCANYYGSSLSMDYWGQGTLVTVSSASTKGPSVFPLAPSSKSTSGGTAALGCLVKDYFPEPVTVSWNSGALTSGVHTFPAVLQSSGLYSLSSVVTVPSSSLGTQTYICNVNHKPSNTKVDKKVEPKSCDKTHTCPPCPAPEFEGGPSVFLFPPKPKDTLMISRTPEVTCVVVDVSHEDPEVKFNWYVDGVEVHNAKTKPREEQYNSTYRVVSVLTVLHQDWLNGKEYKCKVSNKALPASIEKTISKAKGQPREPQVYTLPPCRDELTKNQVSLWCLVKGFYPSDIAVEWESNGQPENNYKTTPPVLDSDGSFFLYSKLTVDKSRWQQGNVFSCSVMHEALHNHYTQKSLSLSPG
light: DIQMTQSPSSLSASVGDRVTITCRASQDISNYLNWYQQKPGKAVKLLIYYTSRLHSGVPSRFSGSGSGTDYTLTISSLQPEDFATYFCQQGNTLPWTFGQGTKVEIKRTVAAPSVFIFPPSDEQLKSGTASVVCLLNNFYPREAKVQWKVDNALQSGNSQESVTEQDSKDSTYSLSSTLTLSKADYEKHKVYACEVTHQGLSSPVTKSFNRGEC
EC50 (human OX40 [1]): 69.2 nM

B3: mono-mut23-20E5_V5 (Fc fusion)
chain: IWELKKDVYVVELDWYPDAPGEMVVLTCDTPEEDGITWTLDQSSEVLGSGKTLTIQVKEFGDAGQYTCHKGGEVLSHSLLLLHKKEDGIWSTDILKDQKEPKNKTFLRCEAKNYSGRFTCWWLTTISTDLTFSVKSSRGSSDPQGVTCGAATLSAERVRGDNKEYEYSVECQEDSACPAAEESLPIEVMVDAVHKLKYENYTSSFFIRDIIKPDPPKNLQLKPLKNSRQVEVSWEYPDTWSTPHSYFSLTFSVQVQGKSKREKKDRVFTDKTSATVICRKNASISVRAQDRYYSSSWSEWASVPCSGGGGSGGGGSGGGGSGGGGSGGGGSRNLPVATPDPGMFPCLHHSQNLLRAVSNMLQKARQTLEFSPCTSEEIDHEDITKDKTSTVEACLPLELTKNESCLNSRETSFITNGSCLASRKTSFMMALCLSSIYEDLKMYQVEFKTMNAKLLMDPKRQIFLDQNMLAVIDELMQALNFNSETVPQKSSLEEPDFYKTAIKLCILLHAFRIRAVTIDRVMSYLNASGGGGSGGGGSEPKSSDKTHTCPPCPAPEFEGGPSVFLFPPKPKDTLMISRTPEVTCVVVDVSHEDPEVKFNWYVDGVEVHNAKTKPREEQYNSTYRVVSVLTVLHQDWLNGKEYKCKVSNKALPASIEKTISKAKGQPREPQVCTLPPSRDELTKNQVSLSCAVKGFYPSDIAVEWESNGQPENNYKTTPPVLDSDGSFFLVSKLTVDKSRWQQGNVFSCSVMHEALHNHYTQKSLSLSPG
heavy: QVQLVQSGAEVKKPGASVKVSCKASGYTFTSYVMHWVRQAPGQRLEWIGYINPYNAGTKYNEKFKGRATLTSDKSASTAYMELSSLRSEDTAVYYCANYYGSSLSMDYWGQGTLVTVSSASTKGPSVFPLAPSSKSTSGGTAALGCLVKDYFPEPVTVSWNSGALTSGVHTFPAVLQSSGLYSLSSVVTVPSSSLGTQTYICNVNHKPSNTKVDKKVEPKSCDKTHTCPPCPAPEFEGGPSVFLFPPKPKDTLMISRTPEVTCVVVDVSHEDPEVKFNWYVDGVEVHNAKTKPREEQYNSTYRVVSVLTVLHQDWLNGKEYKCKVSNKALPASIEKTISKAKGQPREPQVYTLPPCRDELTKNQVSLWCLVKGFYPSDIAVEWESNGQPENNYKTTPPVLDSDGSFFLYSKLTVDKSRWQQGNVFSCSVMHEALHNHYTQKSLSLSPG
light: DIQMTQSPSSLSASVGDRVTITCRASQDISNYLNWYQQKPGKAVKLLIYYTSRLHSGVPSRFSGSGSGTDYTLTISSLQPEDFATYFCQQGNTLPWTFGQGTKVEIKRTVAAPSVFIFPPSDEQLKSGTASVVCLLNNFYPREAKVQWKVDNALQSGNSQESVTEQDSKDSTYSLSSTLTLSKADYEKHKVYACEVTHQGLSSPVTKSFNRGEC
EC50 (human OX40 [1]): 73 nM

B4: mono-mut23-12H3_V4 (Fc fusion)
chain: IWELKKDVYVVELDWYPDAPGEMVVLTCDTPEEDGITWTLDQSSEVLGSGKTLTIQVKEFGDAGQYTCHKGGEVLSHSLLLLHKKEDGIWSTDILKDQKEPKNKTFLRCEAKNYSGRFTCWWLTTISTDLTFSVKSSRGSSDPQGVTCGAATLSAERVRGDNKEYEYSVECQEDSACPAAEESLPIEVMVDAVHKLKYENYTSSFFIRDIIKPDPPKNLQLKPLKNSRQVEVSWEYPDTWSTPHSYFSLTFSVQVQGKSKREKKDRVFTDKTSATVICRKNASISVRAQDRYYSSSWSEWASVPCSGGGGSGGGGSGGGGSGGGGSGGGGSRNLPVATPDPGMFPCLHHSQNLLRAVSNMLQKARQTLEFSPCTSEEIDHEDITKDKTSTVEACLPLELTKNESCLNSRETSFITNGSCLASRKTSFMMALCLSSIYEDLKMYQVEFKTMNAKLLMDPKRQIFLDQNMLAVIDELMQALNFNSETVPQKSSLEEPDFYKTAIKLCILLHAFRIRAVTIDRVMSYLNASGGGGSGGGGSEPKSSDKTHTCPPCPAPEFEGGPSVFLFPPKPKDTLMISRTPEVTCVVVDVSHEDPEVKFNWYVDGVEVHNAKTKPREEQYNSTYRVVSVLTVLHQDWLNGKEYKCKVSNKALPASIEKTISKAKGQPREPQVCTLPPSRDELTKNQVSLSCAVKGFYPSDIAVEWESNGQPENNYKTTPPVLDSDGSFFLVSKLTVDKSRWQQGNVFSCSVMHEALHNHYTQKSLSLSPG
heavy: QVQLVQSGAEVKKPGSSVKVSCKASGYTFKDYTMHWVRQAPGQGLEWIGGIYPNAGGSTYNQNFKDRVTLTADKSTSTAYMELSSLRSEDTAVYYCARMGYHGPHLDFDVWGQGTTVTVSSASTKGPSVFPLAPSSKSTSGGTAALGCLVKDYFPEPVTVSWNSGALTSGVHTFPAVLQSSGLYSLSSVVTVPSSSLGTQTYICNVNHKPSNTKVDKKVEPKSCDKTHTCPPCPAPEFEGGPSVFLFPPKPKDTLMISRTPEVTCVVVDVSHEDPEVKFNWYVDGVEVHNAKTKPREEQYNSTYRVVSVLTVLHQDWLNGKEYKCKVSNKALPASIEKTISKAKGQPREPQVYTLPPCRDELTKNQVSLWCLVKGFYPSDIAVEWESNGQPENNYKTTPPVLDSDGSFFLYSKLTVDKSRWQQGNVFSCSVMHEALHNHYTQKSLSLSPG
light: DIQMTQSPSSLSASVGDRVTITCKASQDVGAAVAWYQQKPGKAPKLLIYWASTRHTGVPSRFSGSGSGTDFTLTISSLQPEDFATYYCQQYINYPLTFGGGTKVEIKRTVAAPSVFIFPPSDEQLKSGTASVVCLLNNFYPREAKVQWKVDNALQSGNSQESVTEQDSKDSTYSLSSTLTLSKADYEKHKVYACEVTHQGLSSPVTKSFNRGEC
EC50 (human OX40 [2]): 1880 nM
